Some targets named below: NEK6(h) (Homo sapiens, UniProt Q9HC98); Rsk4(h) (Homo sapiens, UniProt Q9UK32); MLK1(h) (Homo sapiens, UniProt P80192); IGF-1R(h), activated (Homo sapiens, UniProt P08069); MRCKβ(h) (Homo sapiens, UniProt Q9Y5S2); CDK2/cyclinA(h) (Homo sapiens, UniProt P24941); PKCβI(h) (Homo sapiens, UniProt P05771); EphA7(h) (Homo sapiens, UniProt Q15375); Rsk3(h) (Homo sapiens, UniProt Q15349); CK2(h) (Homo sapiens, UniProt P68400); Flt3(D835Y)(h) (Homo sapiens, UniProt P36888, D835Y); Met(D1246H)(h) (Homo sapiens, UniProt P08581, D1228H); PKCη(h) (Homo sapiens, UniProt P24723); IRAK1(h) (Homo sapiens, UniProt P51617); CaMKIIβ(h) (Homo sapiens, UniProt Q13554); cKit(D816V)(h) (Homo sapiens, UniProt P10721, D816V); Hck(h) activated (Homo sapiens, UniProt P08631).

What all share (test): Kinase Profiling Assay
What all share (type): biochemical
Common to all, as to conditions: 100 μM

For the next assay, the target named is T1, BrSK1(h) (Homo sapiens, UniProt Q8TDC3).
T1 sequence (Q8TDC3 1-778): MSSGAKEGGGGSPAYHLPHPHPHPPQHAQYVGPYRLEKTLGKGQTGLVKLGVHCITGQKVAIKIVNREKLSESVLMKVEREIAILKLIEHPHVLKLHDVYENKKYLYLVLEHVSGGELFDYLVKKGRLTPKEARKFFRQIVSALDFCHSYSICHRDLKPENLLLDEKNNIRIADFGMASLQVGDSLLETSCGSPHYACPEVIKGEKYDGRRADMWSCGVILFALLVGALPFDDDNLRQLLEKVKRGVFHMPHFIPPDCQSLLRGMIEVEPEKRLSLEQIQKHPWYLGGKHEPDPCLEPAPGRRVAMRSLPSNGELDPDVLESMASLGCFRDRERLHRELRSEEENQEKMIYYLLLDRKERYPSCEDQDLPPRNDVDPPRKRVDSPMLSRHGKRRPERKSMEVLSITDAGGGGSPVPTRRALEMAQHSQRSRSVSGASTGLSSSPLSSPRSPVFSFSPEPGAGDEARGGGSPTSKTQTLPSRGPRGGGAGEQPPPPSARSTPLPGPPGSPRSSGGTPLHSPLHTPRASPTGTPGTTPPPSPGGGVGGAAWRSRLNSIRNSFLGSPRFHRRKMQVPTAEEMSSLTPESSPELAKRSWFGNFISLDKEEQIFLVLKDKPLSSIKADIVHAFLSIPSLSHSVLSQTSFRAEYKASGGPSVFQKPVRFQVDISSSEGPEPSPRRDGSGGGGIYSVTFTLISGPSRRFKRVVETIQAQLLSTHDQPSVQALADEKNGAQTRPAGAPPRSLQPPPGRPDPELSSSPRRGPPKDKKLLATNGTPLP

A further assay has as its target T2, IKKα(h) (Homo sapiens, UniProt O15111).
T2 sequence (O15111 1-745): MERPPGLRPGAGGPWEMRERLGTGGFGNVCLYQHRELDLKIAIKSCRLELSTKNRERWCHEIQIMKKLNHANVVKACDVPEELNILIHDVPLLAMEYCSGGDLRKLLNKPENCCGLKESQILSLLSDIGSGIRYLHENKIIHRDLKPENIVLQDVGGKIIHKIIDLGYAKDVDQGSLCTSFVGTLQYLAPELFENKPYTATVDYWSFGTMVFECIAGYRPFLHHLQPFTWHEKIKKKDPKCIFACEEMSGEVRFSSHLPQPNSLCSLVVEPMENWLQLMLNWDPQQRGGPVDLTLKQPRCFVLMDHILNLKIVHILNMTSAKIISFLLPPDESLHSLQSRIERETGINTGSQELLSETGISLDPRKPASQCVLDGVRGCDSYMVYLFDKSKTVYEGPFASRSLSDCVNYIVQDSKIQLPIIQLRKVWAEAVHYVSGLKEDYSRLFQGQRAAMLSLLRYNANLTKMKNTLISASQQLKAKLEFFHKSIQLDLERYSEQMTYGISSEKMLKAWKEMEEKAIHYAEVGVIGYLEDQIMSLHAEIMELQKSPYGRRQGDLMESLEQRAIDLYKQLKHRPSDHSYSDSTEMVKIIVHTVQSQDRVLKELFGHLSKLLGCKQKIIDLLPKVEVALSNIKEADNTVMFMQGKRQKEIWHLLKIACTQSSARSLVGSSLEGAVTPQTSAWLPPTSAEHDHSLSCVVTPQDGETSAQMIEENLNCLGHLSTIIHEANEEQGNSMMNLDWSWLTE

This is an account of results in patent publication US20190134153A1, “IMMUNOMODULATORY EFFECT OF INHALED KINASE INHIBITOR PEPTIDES IN LUNG” (MOERAE MATRIX, INC., priority 2017, published 2019).

Chain of IRAK1(h) (P51617 whole entry): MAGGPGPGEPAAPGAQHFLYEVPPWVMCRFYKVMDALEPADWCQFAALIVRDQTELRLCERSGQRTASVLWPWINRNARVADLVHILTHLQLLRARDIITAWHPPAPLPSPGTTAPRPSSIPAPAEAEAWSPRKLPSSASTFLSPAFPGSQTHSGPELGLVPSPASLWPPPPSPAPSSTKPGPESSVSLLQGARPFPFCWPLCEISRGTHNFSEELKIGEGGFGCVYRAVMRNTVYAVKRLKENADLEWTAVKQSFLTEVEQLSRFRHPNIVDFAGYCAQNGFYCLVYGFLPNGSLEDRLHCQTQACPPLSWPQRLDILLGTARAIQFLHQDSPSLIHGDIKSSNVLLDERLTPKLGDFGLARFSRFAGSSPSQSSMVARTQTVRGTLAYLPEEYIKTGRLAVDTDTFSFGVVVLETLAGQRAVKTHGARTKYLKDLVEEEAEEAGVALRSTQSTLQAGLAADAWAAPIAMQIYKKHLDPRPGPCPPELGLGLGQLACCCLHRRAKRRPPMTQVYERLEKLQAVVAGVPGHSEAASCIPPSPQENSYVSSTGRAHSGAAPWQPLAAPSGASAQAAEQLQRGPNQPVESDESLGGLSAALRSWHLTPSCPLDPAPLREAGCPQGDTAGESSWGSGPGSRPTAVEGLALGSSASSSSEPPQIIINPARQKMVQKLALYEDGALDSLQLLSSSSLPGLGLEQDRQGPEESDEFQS
Chain of Rsk3(h) (Q15349 whole entry): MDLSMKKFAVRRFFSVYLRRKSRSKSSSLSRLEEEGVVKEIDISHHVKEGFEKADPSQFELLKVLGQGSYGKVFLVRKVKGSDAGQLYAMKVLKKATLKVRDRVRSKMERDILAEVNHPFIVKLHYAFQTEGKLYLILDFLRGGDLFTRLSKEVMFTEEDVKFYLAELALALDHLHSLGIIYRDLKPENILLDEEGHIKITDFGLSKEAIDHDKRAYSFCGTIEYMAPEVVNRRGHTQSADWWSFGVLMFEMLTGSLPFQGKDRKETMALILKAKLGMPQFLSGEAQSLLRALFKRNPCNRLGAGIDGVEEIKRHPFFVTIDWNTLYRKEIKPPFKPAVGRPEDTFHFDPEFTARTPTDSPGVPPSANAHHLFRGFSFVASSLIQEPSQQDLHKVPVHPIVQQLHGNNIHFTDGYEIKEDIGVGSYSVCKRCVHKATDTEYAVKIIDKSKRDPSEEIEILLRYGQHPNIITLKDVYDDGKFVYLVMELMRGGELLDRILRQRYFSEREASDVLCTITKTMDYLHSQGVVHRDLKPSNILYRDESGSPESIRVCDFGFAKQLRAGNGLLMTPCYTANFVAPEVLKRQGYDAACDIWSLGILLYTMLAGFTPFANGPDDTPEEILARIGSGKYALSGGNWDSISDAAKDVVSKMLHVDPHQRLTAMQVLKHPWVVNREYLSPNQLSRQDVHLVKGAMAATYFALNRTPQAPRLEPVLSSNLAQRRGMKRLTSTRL
Chain of CaMKIIβ(h) (Q13554 whole entry): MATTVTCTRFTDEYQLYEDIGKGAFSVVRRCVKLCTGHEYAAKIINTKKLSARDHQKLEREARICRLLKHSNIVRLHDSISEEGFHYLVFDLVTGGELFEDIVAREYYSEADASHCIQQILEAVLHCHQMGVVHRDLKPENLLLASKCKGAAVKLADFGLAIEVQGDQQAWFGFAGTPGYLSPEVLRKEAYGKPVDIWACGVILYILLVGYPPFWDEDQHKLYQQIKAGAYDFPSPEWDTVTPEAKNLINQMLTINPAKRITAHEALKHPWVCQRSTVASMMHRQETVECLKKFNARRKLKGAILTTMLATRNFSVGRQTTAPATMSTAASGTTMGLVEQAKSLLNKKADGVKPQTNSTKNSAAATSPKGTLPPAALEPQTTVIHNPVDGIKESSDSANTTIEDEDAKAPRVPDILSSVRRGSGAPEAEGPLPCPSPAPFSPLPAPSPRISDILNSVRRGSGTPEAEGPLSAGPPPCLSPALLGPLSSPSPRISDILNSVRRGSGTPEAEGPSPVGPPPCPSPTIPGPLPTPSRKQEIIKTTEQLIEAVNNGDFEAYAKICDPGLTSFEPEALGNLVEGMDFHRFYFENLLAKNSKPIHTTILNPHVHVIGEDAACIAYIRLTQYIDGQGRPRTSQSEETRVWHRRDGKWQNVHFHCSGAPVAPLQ
Chain of Hck(h) activated (P08631 whole entry): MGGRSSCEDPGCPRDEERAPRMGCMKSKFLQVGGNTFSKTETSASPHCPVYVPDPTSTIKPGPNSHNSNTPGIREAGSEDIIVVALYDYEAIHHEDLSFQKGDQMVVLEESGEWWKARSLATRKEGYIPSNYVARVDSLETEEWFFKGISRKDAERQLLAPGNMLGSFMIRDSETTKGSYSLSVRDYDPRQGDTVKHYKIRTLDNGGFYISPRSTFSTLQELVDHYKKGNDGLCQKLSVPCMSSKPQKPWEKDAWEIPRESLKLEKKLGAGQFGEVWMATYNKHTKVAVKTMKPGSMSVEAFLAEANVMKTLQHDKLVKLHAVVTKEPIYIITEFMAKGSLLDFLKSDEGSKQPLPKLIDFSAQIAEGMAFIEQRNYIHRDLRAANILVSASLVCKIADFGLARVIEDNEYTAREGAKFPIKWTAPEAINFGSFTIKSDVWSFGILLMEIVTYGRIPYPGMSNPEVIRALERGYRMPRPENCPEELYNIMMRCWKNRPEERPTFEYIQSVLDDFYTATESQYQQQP
Chain of EphA7(h) (Q15375 28-998): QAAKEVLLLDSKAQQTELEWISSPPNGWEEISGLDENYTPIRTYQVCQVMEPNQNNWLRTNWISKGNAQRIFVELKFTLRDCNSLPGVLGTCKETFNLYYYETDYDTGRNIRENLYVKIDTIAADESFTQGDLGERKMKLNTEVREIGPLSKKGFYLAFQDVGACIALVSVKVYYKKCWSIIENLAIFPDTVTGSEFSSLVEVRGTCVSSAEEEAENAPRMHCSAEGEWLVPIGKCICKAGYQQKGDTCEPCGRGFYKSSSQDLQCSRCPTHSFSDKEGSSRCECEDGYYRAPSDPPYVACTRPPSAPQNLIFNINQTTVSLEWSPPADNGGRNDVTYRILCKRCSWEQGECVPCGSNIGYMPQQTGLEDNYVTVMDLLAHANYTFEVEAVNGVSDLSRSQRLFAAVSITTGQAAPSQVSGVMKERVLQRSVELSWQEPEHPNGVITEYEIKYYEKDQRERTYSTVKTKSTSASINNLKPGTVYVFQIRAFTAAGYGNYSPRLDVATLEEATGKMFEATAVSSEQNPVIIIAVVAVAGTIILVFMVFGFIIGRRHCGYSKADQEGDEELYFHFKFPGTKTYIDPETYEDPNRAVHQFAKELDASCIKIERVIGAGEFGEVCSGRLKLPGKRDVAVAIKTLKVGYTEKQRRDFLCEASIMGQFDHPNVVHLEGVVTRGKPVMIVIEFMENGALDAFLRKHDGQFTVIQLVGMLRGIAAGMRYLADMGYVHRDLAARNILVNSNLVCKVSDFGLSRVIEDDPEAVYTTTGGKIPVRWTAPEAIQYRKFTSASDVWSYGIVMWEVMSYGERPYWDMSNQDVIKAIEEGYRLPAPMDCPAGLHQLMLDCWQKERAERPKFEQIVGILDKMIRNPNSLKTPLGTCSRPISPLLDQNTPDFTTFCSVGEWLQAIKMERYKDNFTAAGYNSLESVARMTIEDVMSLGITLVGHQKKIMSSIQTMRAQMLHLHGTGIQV
Chain of MLK1(h) (P80192 whole entry): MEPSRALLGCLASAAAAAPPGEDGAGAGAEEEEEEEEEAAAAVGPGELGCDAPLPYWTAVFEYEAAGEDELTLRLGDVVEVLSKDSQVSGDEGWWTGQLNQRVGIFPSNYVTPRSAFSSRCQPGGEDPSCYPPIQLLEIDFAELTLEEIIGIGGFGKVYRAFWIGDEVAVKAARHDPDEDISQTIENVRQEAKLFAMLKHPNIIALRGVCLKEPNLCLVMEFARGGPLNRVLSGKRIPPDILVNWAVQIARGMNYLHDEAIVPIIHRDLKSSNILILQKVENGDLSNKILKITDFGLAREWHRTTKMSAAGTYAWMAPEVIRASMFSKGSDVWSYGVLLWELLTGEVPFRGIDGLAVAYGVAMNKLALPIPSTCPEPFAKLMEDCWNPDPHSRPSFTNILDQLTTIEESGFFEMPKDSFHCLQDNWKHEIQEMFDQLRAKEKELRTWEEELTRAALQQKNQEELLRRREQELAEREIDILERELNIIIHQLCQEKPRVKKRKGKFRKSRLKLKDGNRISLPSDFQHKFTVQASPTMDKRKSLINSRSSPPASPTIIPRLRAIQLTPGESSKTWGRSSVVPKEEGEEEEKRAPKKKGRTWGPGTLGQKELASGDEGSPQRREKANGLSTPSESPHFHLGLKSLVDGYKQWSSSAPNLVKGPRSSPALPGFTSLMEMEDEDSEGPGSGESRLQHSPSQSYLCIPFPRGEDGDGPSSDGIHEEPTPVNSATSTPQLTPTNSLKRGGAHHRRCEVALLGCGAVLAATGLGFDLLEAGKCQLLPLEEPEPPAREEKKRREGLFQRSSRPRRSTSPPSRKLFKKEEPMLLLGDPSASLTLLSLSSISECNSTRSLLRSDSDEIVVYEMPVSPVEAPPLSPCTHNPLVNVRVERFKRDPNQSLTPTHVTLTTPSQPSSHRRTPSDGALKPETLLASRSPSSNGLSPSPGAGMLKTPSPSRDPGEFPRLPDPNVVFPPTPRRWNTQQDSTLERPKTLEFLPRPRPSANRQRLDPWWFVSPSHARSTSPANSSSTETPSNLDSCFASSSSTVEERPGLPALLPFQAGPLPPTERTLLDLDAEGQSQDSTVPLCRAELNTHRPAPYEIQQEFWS
Chain of NEK6(h) (Q9HC98 whole entry): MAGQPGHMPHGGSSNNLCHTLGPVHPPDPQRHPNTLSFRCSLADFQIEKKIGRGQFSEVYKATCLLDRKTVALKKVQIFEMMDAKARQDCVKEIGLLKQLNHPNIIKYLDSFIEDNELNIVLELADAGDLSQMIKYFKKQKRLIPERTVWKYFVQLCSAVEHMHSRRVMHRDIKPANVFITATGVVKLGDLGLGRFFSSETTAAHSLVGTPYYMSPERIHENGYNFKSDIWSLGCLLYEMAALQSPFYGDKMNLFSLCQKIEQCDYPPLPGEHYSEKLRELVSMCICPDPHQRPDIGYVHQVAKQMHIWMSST

As to HRRIKAWLKKIKALARQLGVAA [MMI-0500], the “% activity” value with NEK6(h) is 49%; with BrSK1(h), 72%; with Rsk4(h), 29%; with MLK1(h), 43%; with IGF-1R(h), activated, 45%; in the assay with MRCKβ(h) it was −10%. For the same sequence, the “% activity” value with CDK2/cyclinA(h) worked out at 87%; with PKCβI(h) it was 1%; in the assay with EphA7(h), 189%; in the assay with Rsk3(h) it was 23%; with CK2(h), 93%; in the assay with IKKα(h) it was 50%. Also, the “% activity” value with Flt3(D835Y)(h) is 65%; in the assay with Met(D1246H)(h), 150%; in the assay with PKCη(h), 45%; with IRAK1(h) it was 5%; with CaMKIIβ(h), 3%; with cKit(D816V)(h), 30%. Besides, in the assay with Hck(h) activated, the “% activity” value came out at 67%.
As for YARAAARQARAKALNRQLGVA [MMI-0200], the “% activity” value with NEK6(h) amounted to 98%; with BrSK1(h), 93%; in the assay with Rsk4(h), 125%; with MLK1(h), 84%; with IGF-1R(h), activated, 94%; with PKCβI(h), 98%. Also, the “% activity” value with EphA7(h) was found to be 220%; with CK2(h), 83%; with Met(D1246H)(h) it was 139%; with PKCη(h) it was 101%; with IRAK1(h) it was 101%; with CaMKIIβ(h), 53%. In addition, the entries for the “% activity” value with cKit(D816V)(h) and with Hck(h) activated were 118% and 100%, respectively.
Turning to KAFAKLAARLYRKALARQLGVAA [MMI-0400], the “% activity” value is 85% with NEK6(h); 76% in the assay with BrSK1(h); 91% in the assay with Rsk4(h); 33% with MLK1(h); 77% in the assay with IGF-1R(h), activated; 71% with MRCKβ(h). Moreover, the “% activity” value in the assay with CDK2/cyclinA(h) amounted to 92%; with PKCβI(h), 78%; in the assay with EphA7(h), 222%; with Rsk3(h), 71%; with CK2(h) it was 101%; in the assay with IKKα(h) it was 87%. Further, the “% activity” value with Flt3(D835Y)(h) amounted to 71%; with Met(D1246H)(h), 68%; with PKCη(h), 98%; with IRAK1(h) it was 93%; in the assay with CaMKIIβ(h), 11%; with cKit(D816V)(h) it was 35%. Also, in the assay with Hck(h) activated, the “% activity” value amounted to 81%.
For the sequence FAKLAARLYRKALARQLGVAA [MMI-0300], the “% activity” value was 82% with NEK6(h); 67% with BrSK1(h); 90% with Rsk4(h); 40% in the assay with MLK1(h); 80% with IGF-1R(h), activated; 83% with MRCKβ(h). In addition, the “% activity” value with CDK2/cyclinA(h) came out at 86%; in the assay with PKCβI(h), 78%; in the assay with EphA7(h) it was 159%; in the assay with Rsk3(h) it was 76%; with CK2(h), 90%; in the assay with IKKα(h), 93%. In addition, the “% activity” value with Flt3(D835Y)(h) is recorded as 80%; in the assay with Met(D1246H)(h) it was 125%; in the assay with IRAK1(h), 95%; in the assay with CaMKIIβ(h), 2%; with cKit(D816V)(h), 60%; in the assay with Hck(h) activated, 82%.
